Test results reported in publication PMC6323120.

Target: T1, TNFR1, P19438
T1 chain: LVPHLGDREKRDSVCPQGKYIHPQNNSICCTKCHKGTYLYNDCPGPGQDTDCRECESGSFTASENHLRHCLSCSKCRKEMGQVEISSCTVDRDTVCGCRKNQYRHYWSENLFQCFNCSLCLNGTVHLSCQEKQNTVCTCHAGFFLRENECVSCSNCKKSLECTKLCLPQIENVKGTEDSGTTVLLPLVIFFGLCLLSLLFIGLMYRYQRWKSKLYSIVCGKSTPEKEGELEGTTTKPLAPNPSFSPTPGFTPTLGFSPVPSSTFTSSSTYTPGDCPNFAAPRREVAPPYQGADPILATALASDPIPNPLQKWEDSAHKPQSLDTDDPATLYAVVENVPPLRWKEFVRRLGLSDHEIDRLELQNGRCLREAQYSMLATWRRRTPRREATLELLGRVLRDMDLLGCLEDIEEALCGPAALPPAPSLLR
Experiment: quantitative single-molecule localization microscopy (dSTORM/PALM); TNFR1 in the plasma membrane at physiological cell surface expression levels, upon TNF binding
Settings: remark: other sources report otherwise

stoichiometry N: > 3
B1: TNFR1, P19438 30-455 (receptor)
chain: LVPHLGDREKRDSVCPQGKYIHPQNNSICCTKCHKGTYLYNDCPGPGQDTDCRECESGSFTASENHLRHCLSCSKCRKEMGQVEISSCTVDRDTVCGCRKNQYRHYWSENLFQCFNCSLCLNGTVHLSCQEKQNTVCTCHAGFFLRENECVSCSNCKKSLECTKLCLPQIENVKGTEDSGTTVLLPLVIFFGLCLLSLLFIGLMYRYQRWKSKLYSIVCGKSTPEKEGELEGTTTKPLAPNPSFSPTPGFTPTLGFSPVPSSTFTSSSTYTPGDCPNFAAPRREVAPPYQGADPILATALASDPIPNPLQKWEDSAHKPQSLDTDDPATLYAVVENVPPLRWKEFVRRLGLSDHEIDRLELQNGRCLREAQYSMLATWRRRTPRREATLELLGRVLRDMDLLGCLEDIEEALCGPAALPPAPSLLR
